Test results published in patent US20220033483A1 (GUAGNDONG FEIPENG BIOLOGICAL, published 2022).

Molecular target: T1, cTnI quality control product recombinant protein (human, UniProt P19429 1-210, limits assumed)
T1 construct: the assay paragraphs only say cTnI; also called cardiac troponin I; cTnI antigen
Test: AMC biosensor, antibody on sensor
Protocol: Operating process: it is equilibrated in Buffer 1 (PBST) for 60 s, the antibody is immobilized in an antibody solution for 300 s, incubated in Buffer 2 (PBST) for 180 s, bound in antigen solution for 420 s, dissociated in the Buffer 2 for 1200 s, 10 mM of GLY solution with pH 1.69 and Buffer 3 are used for sensor regeneration, and data is output.

T1 sequence (P19429 whole entry): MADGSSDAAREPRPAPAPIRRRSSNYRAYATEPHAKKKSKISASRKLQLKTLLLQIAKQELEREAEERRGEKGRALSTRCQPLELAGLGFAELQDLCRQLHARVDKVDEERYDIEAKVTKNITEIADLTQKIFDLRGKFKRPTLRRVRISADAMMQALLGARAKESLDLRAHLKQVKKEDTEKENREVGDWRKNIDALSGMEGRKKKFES

Binder	Kd	koff	kon
Mutation 1-27 (antibody, V domains shown) VH: QVQLQQSGTELAKPGASVKFSCKASGYTFTSYWMYWIKQRPGQGLEWIGYLNPSSGHTDYNQKFKDKATLTADKSSSTAYMQLNSLTSEDSAVYYCARKYFGPFGMDYWGQGTSVTVSS VL: EIFLTQSPAIMSASPGEKVTMTCSASTSVSYVHWYQQKSGTSPKRWIYDTSKLASGIPVRFSGSGSGTSYSLTISSMEAEDAATYYCQQWSSNPYTFGGGTKLEIKR	9.42 nM	0.000372 s⁻¹	39500 M⁻¹ s⁻¹
Mutation 1-41 (antibody, V domains shown) VH: QVQLQQSGTELAKPGASVKFSCKASGYTFSSYWMYWIKQRPGQGLEWIGYINPSTGHTDYNQRFKDKATLTADKSSSTAYMQLNSLTSEDSAVYYCARRYYGPFGMDYWGQGTSVTVSS VL: EIFLTQSPAIMSASPGEKVTMTCSASTSVSYVHWYQQKSGTSPKRWIYDTSKIASGIPVRFSGSGSGTSYSLTISSMEAEDAATYYCQQWSSQPYTFGGGTKLEIKR	3.27 nM	6.06e-05 s⁻¹	18500 M⁻¹ s⁻¹
Mutation 1-45 (antibody, V domains shown) VH: QVQLQQSGTELAKPGASVKFSCKASGYTFSSYWMYWIKQRPGQGLEWIGYLNPSTGHTDYNQRFKDKATLTADKSSSTAYMQLNSLTSEDSAVYYCARKYWGPFGMDYWGQGTSVTVSS VL: EIFLTQSPAIMSASPGEKVTMTCSASSTVSYVHWYQQKSGTSPKRWLYDTSKLASGIPVRFSGSGSGTSYSLTISSMEAEDAATYYCQQWSSQPYTFGGGTKLEIKR	3.7 nM	9.65e-05 s⁻¹	26100 M⁻¹ s⁻¹
Mutation 1-38 (antibody, V domains shown) VH: QVQLQQSGTELAKPGASVKFSCKASGYTFTSYWMYWIKQRPGQGLEWIGYLNPSSGHTDYNQKFKDKATLTADKSSSTAYMQLNSLTSEDSAVYYCARKYYGPFGMDYWGQGTSVTVSS VL: EIFLTQSPAIMSASPGEKVTMTCSASSTVSYVHWYQQKSGTSPKRWLYDTSKLASGIPVRFSGSGSGTSYSLTISSMEAEDAATYYCQQWSSNPYTFGGGTKLEIKR	7.3 nM	0.000223 s⁻¹	30500 M⁻¹ s⁻¹
Mutation 1-46 (antibody, V domains shown) VH: QVQLQQSGTELAKPGASVKFSCKASGYTFTSYWMYWIKQRPGQGLEWIGYLNPSSGHTDYNQKFKDKATLTADKSSSTAYMQLNSLTSEDSAVYYCARRYFGPFGMDYWGQGTSVTVSS VL: EIFLTQSPAIMSASPGEKVTMTCSASTSVSYVHWYQQKSGTSPKRWIYDTSKLASGIPVRFSGSGSGTSYSLTISSMEAEDAATYYCQQWSSNPYTFGGGTKLEIKR	5.57 nM	0.000118 s⁻¹	21200 M⁻¹ s⁻¹
Mutation 1-42 (antibody, V domains shown) VH: QVQLQQSGTELAKPGASVKFSCKASGYTFTSYWMYWIKQRPGQGLEWIGYINPSSGHTDYNQKFKDKATLTADKSSSTAYMQLNSLTSEDSAVYYCARRYWGPFGMDYWGQGTSVTVSS VL: EIFLTQSPAIMSASPGEKVTMTCSASSTVSYVHWYQQKSGTSPKRWLYDTSKLASGIPVRFSGSGSGTSYSLTISSMEAEDAATYYCQQWSSNPYTFGGGTKLEIKR	7.37 nM	0.000362 s⁻¹	49100 M⁻¹ s⁻¹
Mutation 1-35 (antibody, V domains shown) VH: QVQLQQSGTELAKPGASVKFSCKASGYTFTTYWMYWIKQRPGQGLEWIGYINPSTGHTDYNQKFKDKATLTADKSSSTAYMQLNSLTSEDSAVYYCARRYWGPFGMDYWGQGTSVTVSS VL: EIFLTQSPAIMSASPGEKVTMTCSASSSVSYVHWYQQKSGTSPKRWIYDTSKLASGIPVRFSGSGSGTSYSLTISSMEAEDAATYYCQQWSTQPYTFGGGTKLEIKR	2.6 nM	4.92e-05 s⁻¹	18900 M⁻¹ s⁻¹
Mutation 1-33 (antibody, V domains shown) VH: QVQLQQSGTELAKPGASVKFSCKASGYTFSSYWMYWIKQRPGQGLEWIGYINPSTGHTDYNQKFKDKATLTADKSSSTAYMQLNSLTSEDSAVYYCARKYFGPFGMDYWGQGTSVTVSS VL: EIFLTQSPAIMSASPGEKVTMTCSASTSVSYVHWYQQKSGTSPKRWIYDTSKIASGIPVRFSGSGSGTSYSLTISSMEAEDAATYYCQQWSSNPYTFGGGTKLEIKR	2.75 nM	9.53e-05 s⁻¹	34700 M⁻¹ s⁻¹
Mutation 1-29 (antibody, V domains shown) VH: QVQLQQSGTELAKPGASVKFSCKASGYTFSSYWMYWIKQRPGQGLEWIGYINPSSGHTDYNQKFKDKATLTADKSSSTAYMQLNSLTSEDSAVYYCARKYWGPFGMDYWGQGTSVTVSS VL: EIFLTQSPAIMSASPGEKVTMTCSASSSVSYVHWYQQKSGTSPKRWIYDTSKIASGIPVRFSGSGSGTSYSLTISSMEAEDAATYYCQQWSSNPYTFGGGTKLEIKR	0.96 nM	1.52e-05 s⁻¹	15800 M⁻¹ s⁻¹
Mutation 1-43 (antibody, V domains shown) VH: QVQLQQSGTELAKPGASVKFSCKASGYTFTSYWMYWIKQRPGQGLEWIGYINPSTGHTDYNQKFKDKATLTADKSSSTAYMQLNSLTSEDSAVYYCARKYFGPFGMDYWGQGTSVTVSS VL: EIFLTQSPAIMSASPGEKVTMTCSASTSVSYVHWYQQKSGTSPKRWIYDTSKLASGIPVRFSGSGSGTSYSLTISSMEAEDAATYYCQQWSTQPYTFGGGTKLEIKR	12.9 nM	0.000368 s⁻¹	28600 M⁻¹ s⁻¹
Mutation 1-31 (antibody, V domains shown) VH: QVQLQQSGTELAKPGASVKFSCKASGYTFTTYWMYWIKQRPGQGLEWIGYINPSTGHTDYNQKFKDKATLTADKSSSTAYMQLNSLTSEDSAVYYCARRYYGPFGMDYWGQGTSVTVSS VL: EIFLTQSPAIMSASPGEKVTMTCSASSSVSYVHWYQQKSGTSPKRWIYDTSKLASGIPVRFSGSGSGTSYSLTISSMEAEDAATYYCQQWSSNPYTFGGGTKLEIKR	12.7 nM	0.000365 s⁻¹	24000 M⁻¹ s⁻¹
Mutation 1-30 (antibody, V domains shown) VH: QVQLQQSGTELAKPGASVKFSCKASGYTFTSYWMYWIKQRPGQGLEWIGYLNPSSGHTDYNQRFKDKATLTADKSSSTAYMQLNSLTSEDSAVYYCARRYFGPFGMDYWGQGTSVTVSS VL: EIFLTQSPAIMSASPGEKVTMTCSASTTVSYVHWYQQKSGTSPKRWLYDTSKLASGIPVRFSGSGSGTSYSLTISSMEAEDAATYYCQQWSSNPYTFGGGTKLEIKR	7.2 nM	0.000258 s⁻¹	35800 M⁻¹ s⁻¹
Mutation 1-39 (antibody, V domains shown) VH: QVQLQQSGTELAKPGASVKFSCKASGYTFTTYWMYWIKQRPGQGLEWIGYLNPSTGHTDYNQKFKDKATLTADKSSSTAYMQLNSLTSEDSAVYYCARKYWGPFGMDYWGQGTSVTVSS VL: EIFLTQSPAIMSASPGEKVTMTCSASTSVSYVHWYQQKSGTSPKRWIYDTSKLASGIPVRFSGSGSGTSYSLTISSMEAEDAATYYCQQWSTQPYTFGGGTKLEIKR	1.03 nM	2.79e-05 s⁻¹	27000 M⁻¹ s⁻¹
Mutation 1-37 (antibody, V domains shown) VH: QVQLQQSGTELAKPGASVKFSCKASGYTFSSYWMYWIKQRPGQGLEWIGYLNPSTGHTDYNQRFKDKATLTADKSSSTAYMQLNSLTSEDSAVYYCARKYFGPFGMDYWGQGTSVTVSS VL: EIFLTQSPAIMSASPGEKVTMTCSASTSVSYVHWYQQKSGTSPKRWIYDTSKLASGIPVRFSGSGSGTSYSLTISSMEAEDAATYYCQQWSTQPYTFGGGTKLEIKR	8.01 nM	0.000268 s⁻¹	33400 M⁻¹ s⁻¹
